Assay results: article PMC6391877

Experiments:
[1] = molecular target: 4 domain CD4 (residues 1-388) with a C-terminal twin strep tag (human) (UniProt P01730); assay: SEC
[2] = molecular target: intact human C-C chemokine receptor type 5 (human) (UniProt P51681); assay: SEC
UniProt P51681, sequence (P51681 whole entry): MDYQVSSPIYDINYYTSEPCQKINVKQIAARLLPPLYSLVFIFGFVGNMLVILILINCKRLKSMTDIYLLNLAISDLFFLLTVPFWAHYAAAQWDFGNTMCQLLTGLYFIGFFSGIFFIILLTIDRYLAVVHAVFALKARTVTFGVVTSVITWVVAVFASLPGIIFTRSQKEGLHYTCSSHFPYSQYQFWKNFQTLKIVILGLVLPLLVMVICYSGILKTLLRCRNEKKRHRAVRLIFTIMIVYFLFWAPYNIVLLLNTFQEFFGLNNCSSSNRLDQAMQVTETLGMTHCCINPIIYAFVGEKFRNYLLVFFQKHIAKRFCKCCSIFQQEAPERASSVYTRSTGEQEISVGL

Row | Substance | stoichiometry N [1] | stoichiometry N [2]
1 | HIV-1 gp120 (residues 1-507) from the isolate 92BR020 with a C-terminal 6xhistidine tag (natural protein) | 1 | 
2 | preformed CD4-gp120 complex (from UniProt P01730 26-388) |  | 1
